# Assay results: US20110171681
# Tests used:
# [1] = target: cyclin-dependent kinase inhibitor p57(kip2) (UniProt P49919)
# [2] = target: cell surface beta1,4-galactosyltransferase I (GalT), mouse, endogenous (UniProt P15535)
substance,measurement,setting,value
His tagged GTAP,in vitro ubiquitination of p57 with biotinylated ubiquitin,[1],GTAP increased the ubiquitination of p57 only in the presence of E1
same,in vitro ubiquitination of immunoprecipitated GalT,[2],Surprisingly GTAP had no effect on immunoprecipitated GalT in an in vitro ubiquitin system
